Laboratory results published in patent KR20150077891A (dated 2015).

Legend:
[1] = target: T1, WRS (tryptophanyl-tRNA synthetase), purified recombinant antigen / standard (human, UniProt P23381 1-471, limits assumed); assay: SPR (ProteOn XPR36), WRS amine-coupled to GLC chip, scFv 500-30 nM as analyte, 25 C
T1 construct: The recombinant construct used for panning, SPR, Luminex beads and ELISA is not described; also called WRS 항원; 재조합 WRS 표준물질
T1 sequence (looked up): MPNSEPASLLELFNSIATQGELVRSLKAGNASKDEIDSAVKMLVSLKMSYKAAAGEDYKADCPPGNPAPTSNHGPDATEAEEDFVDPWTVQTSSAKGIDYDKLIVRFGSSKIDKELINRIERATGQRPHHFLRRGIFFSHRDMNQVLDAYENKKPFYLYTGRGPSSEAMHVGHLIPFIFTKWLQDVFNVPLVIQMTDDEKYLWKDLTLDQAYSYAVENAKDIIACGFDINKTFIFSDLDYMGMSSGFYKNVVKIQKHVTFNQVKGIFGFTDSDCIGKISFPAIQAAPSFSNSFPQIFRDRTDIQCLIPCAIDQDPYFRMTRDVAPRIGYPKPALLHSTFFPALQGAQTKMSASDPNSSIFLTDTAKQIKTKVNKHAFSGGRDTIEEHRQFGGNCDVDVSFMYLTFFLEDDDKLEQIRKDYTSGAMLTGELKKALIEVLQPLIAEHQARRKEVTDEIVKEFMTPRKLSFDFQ

[2] = target: T2, AIMP1 (Aminoacyl-tRNA-synthetase-interacting multifunctional protein 1), recombinant (UniProt Q12904 1-312, limits assumed); assay: Luminex multiplex bead assay, antigen coupled to beads, anti-HA-biotin / SA-PE detection
T2 construct: also called p43; AIMP1(p43)
T2 sequence (looked up): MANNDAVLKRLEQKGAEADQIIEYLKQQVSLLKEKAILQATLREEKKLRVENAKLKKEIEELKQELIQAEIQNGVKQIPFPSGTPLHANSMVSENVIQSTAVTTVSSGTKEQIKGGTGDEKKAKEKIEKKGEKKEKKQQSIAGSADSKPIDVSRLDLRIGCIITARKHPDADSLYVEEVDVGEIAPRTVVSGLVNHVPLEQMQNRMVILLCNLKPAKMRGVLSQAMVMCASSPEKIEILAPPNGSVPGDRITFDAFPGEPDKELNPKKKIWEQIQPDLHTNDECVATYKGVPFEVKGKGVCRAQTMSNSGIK

[3] = target: T3, HRS (Histidyl-tRNA synthetase), recombinant (UniProt P12081 1-509, limits assumed); assay: as above
T3 construct: also called 히스티딜-tRNA 합성효소
T3 sequence (looked up): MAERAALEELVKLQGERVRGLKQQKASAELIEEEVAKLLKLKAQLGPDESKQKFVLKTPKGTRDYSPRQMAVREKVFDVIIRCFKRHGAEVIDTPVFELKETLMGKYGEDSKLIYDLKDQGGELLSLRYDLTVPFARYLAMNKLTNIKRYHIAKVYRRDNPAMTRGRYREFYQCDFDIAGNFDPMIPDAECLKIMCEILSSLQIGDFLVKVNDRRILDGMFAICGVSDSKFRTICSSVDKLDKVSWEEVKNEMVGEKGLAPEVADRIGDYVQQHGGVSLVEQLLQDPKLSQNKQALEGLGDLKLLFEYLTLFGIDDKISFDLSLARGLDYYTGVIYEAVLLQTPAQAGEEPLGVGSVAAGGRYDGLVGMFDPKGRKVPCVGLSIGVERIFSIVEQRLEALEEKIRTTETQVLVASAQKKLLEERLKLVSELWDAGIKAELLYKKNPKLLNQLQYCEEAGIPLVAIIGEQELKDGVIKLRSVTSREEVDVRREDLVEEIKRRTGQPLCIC

[4] = target: T4, NRS (Asparaginyl-tRNA synthetase), recombinant (UniProt O43776 1-548, limits assumed); assay: as above
T4 construct: also called 아스파라기닐딜-tRNA 합성효소
T4 sequence (looked up): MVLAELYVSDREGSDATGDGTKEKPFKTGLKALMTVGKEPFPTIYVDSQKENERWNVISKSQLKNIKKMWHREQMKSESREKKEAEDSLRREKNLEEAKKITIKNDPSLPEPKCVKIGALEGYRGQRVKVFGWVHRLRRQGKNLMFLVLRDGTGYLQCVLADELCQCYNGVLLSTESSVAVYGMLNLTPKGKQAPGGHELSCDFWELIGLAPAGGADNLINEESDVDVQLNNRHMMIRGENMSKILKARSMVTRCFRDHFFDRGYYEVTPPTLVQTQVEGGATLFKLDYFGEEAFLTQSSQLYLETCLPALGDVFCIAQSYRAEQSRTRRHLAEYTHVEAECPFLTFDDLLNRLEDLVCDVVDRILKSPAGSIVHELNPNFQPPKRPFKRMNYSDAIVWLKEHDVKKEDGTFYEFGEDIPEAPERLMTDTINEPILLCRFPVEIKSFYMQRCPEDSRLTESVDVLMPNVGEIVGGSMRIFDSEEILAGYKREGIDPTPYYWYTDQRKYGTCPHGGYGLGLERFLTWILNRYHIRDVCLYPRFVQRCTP

[5] = target: T5, KRS (Lysyl-tRNA synthetase), recombinant (UniProt Q15046 1-597, limits assumed); assay: as above
T5 construct: also called 리실-tRNA 합성효소

[6] = target: T6, SRS (Seryl-tRNA synthetase), recombinant (UniProt P49591 1-514, limits assumed); assay: as above
T6 construct: also called 세릴-tRNA 합성효소

[7] = target: T7, YRS (Tyrosyl-tRNA synthetase), recombinant (UniProt P54577 1-528, limits assumed); assay: as above
T7 construct: also called 타이로실-tRNA 합성효소
T7 sequence (looked up): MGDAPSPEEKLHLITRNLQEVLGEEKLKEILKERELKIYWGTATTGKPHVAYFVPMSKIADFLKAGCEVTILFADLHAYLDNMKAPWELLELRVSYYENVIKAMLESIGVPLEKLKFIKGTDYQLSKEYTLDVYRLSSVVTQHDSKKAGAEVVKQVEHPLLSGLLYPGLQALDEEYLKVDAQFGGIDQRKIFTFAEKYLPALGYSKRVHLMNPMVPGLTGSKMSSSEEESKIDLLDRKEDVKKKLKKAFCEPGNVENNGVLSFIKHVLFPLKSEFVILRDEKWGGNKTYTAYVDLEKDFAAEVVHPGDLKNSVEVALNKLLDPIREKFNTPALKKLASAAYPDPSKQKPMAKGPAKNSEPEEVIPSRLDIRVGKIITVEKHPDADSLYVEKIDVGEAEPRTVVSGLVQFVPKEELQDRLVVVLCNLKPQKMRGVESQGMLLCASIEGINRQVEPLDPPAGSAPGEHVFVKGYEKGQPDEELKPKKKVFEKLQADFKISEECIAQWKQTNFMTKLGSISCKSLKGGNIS

[8] = target: T8, GRS (Glycyl-tRNA synthetase), recombinant (UniProt P41250 55-739, limits assumed); assay: as above
T8 construct: also called 글리실-tRNA 합성효소
T8 sequence (looked up): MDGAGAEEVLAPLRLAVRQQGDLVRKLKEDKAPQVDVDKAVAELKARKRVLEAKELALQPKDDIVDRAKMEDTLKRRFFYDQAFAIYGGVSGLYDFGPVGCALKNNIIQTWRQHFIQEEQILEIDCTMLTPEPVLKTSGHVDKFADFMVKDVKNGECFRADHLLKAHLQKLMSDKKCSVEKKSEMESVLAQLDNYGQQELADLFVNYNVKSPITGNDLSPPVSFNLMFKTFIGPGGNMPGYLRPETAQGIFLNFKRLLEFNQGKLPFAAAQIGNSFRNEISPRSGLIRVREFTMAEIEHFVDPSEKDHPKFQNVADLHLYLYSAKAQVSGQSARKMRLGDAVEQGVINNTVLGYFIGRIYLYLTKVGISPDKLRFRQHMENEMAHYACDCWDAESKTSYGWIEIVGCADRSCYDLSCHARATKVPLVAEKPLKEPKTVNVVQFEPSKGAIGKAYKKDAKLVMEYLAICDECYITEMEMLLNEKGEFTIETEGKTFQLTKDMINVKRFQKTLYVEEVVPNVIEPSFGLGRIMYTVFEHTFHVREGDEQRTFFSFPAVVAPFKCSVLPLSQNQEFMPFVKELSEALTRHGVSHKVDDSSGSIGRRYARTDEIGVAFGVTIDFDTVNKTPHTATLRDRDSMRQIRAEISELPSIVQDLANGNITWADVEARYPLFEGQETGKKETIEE

T6 sequence (P49591 whole entry): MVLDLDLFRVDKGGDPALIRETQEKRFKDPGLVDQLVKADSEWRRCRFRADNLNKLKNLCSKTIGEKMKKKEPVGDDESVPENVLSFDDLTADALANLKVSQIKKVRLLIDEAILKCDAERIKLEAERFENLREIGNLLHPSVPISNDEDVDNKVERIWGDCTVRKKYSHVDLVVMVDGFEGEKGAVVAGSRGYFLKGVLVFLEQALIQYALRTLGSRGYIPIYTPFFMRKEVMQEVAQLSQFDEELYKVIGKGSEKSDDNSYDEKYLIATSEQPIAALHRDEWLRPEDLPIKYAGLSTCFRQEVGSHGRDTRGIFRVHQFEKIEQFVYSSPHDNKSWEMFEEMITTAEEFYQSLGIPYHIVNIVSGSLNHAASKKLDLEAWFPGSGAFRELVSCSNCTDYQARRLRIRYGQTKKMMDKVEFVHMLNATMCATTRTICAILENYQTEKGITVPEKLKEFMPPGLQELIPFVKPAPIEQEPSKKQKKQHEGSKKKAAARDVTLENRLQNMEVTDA
T5 sequence (Q15046 whole entry): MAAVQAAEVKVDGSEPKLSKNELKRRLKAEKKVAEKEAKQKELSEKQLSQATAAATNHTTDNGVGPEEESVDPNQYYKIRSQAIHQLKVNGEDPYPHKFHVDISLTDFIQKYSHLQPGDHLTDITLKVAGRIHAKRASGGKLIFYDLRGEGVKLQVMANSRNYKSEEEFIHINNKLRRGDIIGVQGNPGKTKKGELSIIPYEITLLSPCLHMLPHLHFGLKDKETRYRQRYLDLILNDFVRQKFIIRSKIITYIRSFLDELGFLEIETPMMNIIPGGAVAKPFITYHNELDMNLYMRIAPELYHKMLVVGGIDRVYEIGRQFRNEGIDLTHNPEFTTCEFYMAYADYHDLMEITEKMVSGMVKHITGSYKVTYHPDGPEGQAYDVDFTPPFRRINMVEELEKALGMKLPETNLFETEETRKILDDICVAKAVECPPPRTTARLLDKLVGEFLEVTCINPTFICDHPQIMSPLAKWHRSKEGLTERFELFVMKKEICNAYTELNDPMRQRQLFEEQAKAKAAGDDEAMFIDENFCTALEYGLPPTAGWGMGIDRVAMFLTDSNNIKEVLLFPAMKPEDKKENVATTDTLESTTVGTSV

B1: anti-WRS scFv Biocon-W1 (scFv)
scFv: EVQLLESGGGLVQPGGSLRLSCAASGLAFSDYYMSWVRLAPGKGLEWVSVISPGSGSKYYADSVRGRFTVSRDNSKNTLYLQMNSLRAEDTAVYYCARKNQAFDYWGQGTLVTVSSGGGGSGGGGSGGGGSQSVLTQPPSASGTPGQRVTISCTGSSSNIGSNYVTWYQQLPGTAPKLLIYANSQRPSGVPDRFSGSKSGTSASLAISGLRSEDEADYYCASWDASLSGYVFGGGTKLTVL
notes: Single clone selected from a human VH3-23/VL1g synthetic scFv phage library and expressed in the E. coli periplasm; also called 항 WRS scFv 항체; 본 발명의 항체; not shown: His and HA tags from the pComb3X vector, implied by Ni-NTA purification and anti-HA detection
For B1, the Kd [1] was 0.7 µM, the binding result [2] was “no binding” and the binding result [3] was “no binding”. B1: no binding [4]; no binding [5]; no binding [6]. B1: no binding [7]; no binding [8].
